The Human Domainome abundance scans (Beltran et al. 2025)

B1: DNA topoisomerase 3-alpha, residues 812 to 851; numbered along this chain, Q13472 (parent)
chain: TCNCGQEAVLLTVRKEGPNRGRQFFKCNGGSCNFFLWADS
B2: Zinc finger homeobox protein 3, residues 2147 to 2202; numbered along this chain, Q15911 (parent)
chain: RPRTRITDDQLRVLRQYFDINNSPSEEQIKEMADKSGLPQKVIKHWFRNTLFKERQ

Variants of: B1
Test: abundance fitness (aPCA) (normalised: wild type 0, dead -1); higher = more abundant; growth selection in yeast, the domain comes from the species named
Conditions: Homo sapiens

Abundance fitness of substitutions, site by site:
A8: R -0.543; P 0.309; L -0.238; S -0.369; W -0.367; D -0.903; F -1; E -0.644; M -0.172
Q6: A 0.229; G -0.182; R 0.038; V -0.338
E16: Y -0.421; T -0.13; A -0.185; P -0.196; N -0.018; R -0.165; G -0.266; S -0.344; V -0.5; C -0.342; K -0.071; L -0.246
C32: R -0.934; S -0.33; T -0.854; P -1.36; V -0.977; G -1.07
F25: W -0.123; M -0.149; V -0.509; R -0.412; K -0.413
V13: S -0.234
F34: L -0.703; R -0.374; K -0.576; H -0.396; Q -0.44; E -0.626
L36: G -0.177; E -0.013; M 0.022; S 0.134; K 0.189; V -0.255; A 0.028; Y -0.265; F 0.063; H -0.22; W -0.134; R 0.013
R20: C -0.549; S -0.167; G -0.171; W -0.271; Y 0.007; P -0.227; E -0.039; H 0.199; D 0.22
R22: G -0.565; Q -0.623; M -0.677; W -0.629; L -0.322; T -0.438; A -0.401; N -0.459; K 0.007; S -0.513
E7: P -0.023; S -0.233; G -0.221; R -0.18; H -0.142
C2: F -0.827; S -0.593; G -0.601
K26: L -0.318; G -0.004; S -0.011; V -0.266; C -0.13; R 0.025; A -0.001; M -0.232
K15: G 0.318; C -0.342; F -0.136; T 0.067; E 0.105; A -0.282; N 0.031; M -0.066; W -0.126; Y -0.299; L -0.325; R 0.108; D 0.06
G30: Q -0.265; L -0.473; W -0.287; A -0.381; V -0.574; S -0.304
Q23: G -0.21; D 0.021; H 0.03; W -0.574; T -0.219
N33: W -0.572; G -0.072; A -0.12; L -0.892; V -0.7; S -0.057; T -0.075
N19: D 0.069; H 0.157; L -0.195; G -0.537; V -0.54; S -0.168; A -0.509; T -0.075; W -0.454; R -0.777; E -0.222; M 0.085
C4: R -0.907; V -1.09; L -1.24; G -1.3
F35: L -0.444; K -0.014; P -0.388; E -0.447; Q -0.241; W -0.246; V -0.352
V9: G -0.355; L 0.12; C -0.226; P -0.227; S -0.194; R -0.154; Q -0.04
S31: K 0.112; R 0.065; W -0.273; Q 0.055; T 0.114; I -0.209; G -0.071; H 0.092; M -0.13; A -0.072; C -0.239; L -0.176; D 0.077
G5: R -0.467; Q -0.259; L -0.666; M -0.267; V -0.714; A -0.437; H -0.419; C -0.484; S -0.377; K -0.263
N28: V -0.136; R 0.131; A 0.075; I 0.137; T -0.043; W 0.079; S -0.09; L -0.195
G21: W -0.89; N -0.208; R -0.643; S -0.469; Q -0.614; V -0.763; A -0.367; I -0.787
G17: A -0.676; L -0.606; W -0.684; V -0.675; R -0.665; Q -0.681; P -0.89; I -0.263
W37: A -0.477
R14: N -0.166; K 0.089; P -0.312; L -0.099; T -0.052; C -0.15; W -0.075; V -0.037; G -0.092; S -0.094; A -0.006; M 0.06; Q 0.001; Y -0.052; E 0.001
T12: C -0.39; Y -0.356; S -0.475; A -0.59; R -0.437; W -0.721; H -0.383; K -0.347; P -0.528; E -0.722; Q -0.24; V -0.47
L11: S 0.008; W -0.072; C -0.208; G 0.041; Q 0.054; R 0.049; T 0.027; V 0.031; A 0.012
C27: V -1.09; T -0.86; H -0.753; A -0.44; R -1; E -0.53; G -1.19; M -0.789; L -0.984
T1: W -0.858; Q -0.24
L10: R -0.126; E -0.168; K -0.065; S -0.33; T -0.068; V -0.357; G -0.474; A -0.284
P18: L -0.352; C -0.482; H -0.353; V -0.149; R -0.252; W -0.716; M -0.336; A -0.058
N3: L -0.32; D -0.006; R -0.539; G -0.739
G29: A 0.121; T -0.371; P -0.571; R -0.093; V -0.074; D 0

Variants of: B2
Test: as above
Conditions: Homo sapiens

Abundance fitness, by site and new letter:
F52: V 0.05; S -0.029; T 0.181; W -0.161
Q56: T -0.298; A 0.09; S -0.57; P -0.261; H -0.5; G -0.419; R 0.166; D -0.844
R55: Q -0.054; I -0.096; T -0.206; Y -0.195; H 0.013; E -0.173; M -0.101; N -0.356; L -0.179; P -0.343; C -0.313; D 0.114; W -0.396; K -0.175; A -0.139; G -0.054; F -0.146
E54: G -0.291; L -0.127; C -0.149; P -0.367; M -0.107; T -0.048; R -0.101; Y -0.277; D 0.046; V -0.159; Q 0.04; K -0.344; S -0.128; H 0.085; I 0.235
K53: V -0.167; I -0.124; Y 0.141; F -0.195; Q 0.055; S -0.056; T 0.017; A 0.017; P -0.192; M 0.09; N -0.041; D -0.18; L -0.163; H -0.07; E -0.006; R -0.033; W -0.299; C -0.269
